Test results published in article PMC1084328 (Nucleic Acids Research, 2005).
Like-named read-outs stand apart in the source and are kept apart here.

Legend:
[1] = biological target: T1, RecN (Bacillus subtilis, UniProt P17894); assay: EMSA, nucleotide-dependent RecN-ssDNA complex; type: binding
T1 sequence (P17894 1-576): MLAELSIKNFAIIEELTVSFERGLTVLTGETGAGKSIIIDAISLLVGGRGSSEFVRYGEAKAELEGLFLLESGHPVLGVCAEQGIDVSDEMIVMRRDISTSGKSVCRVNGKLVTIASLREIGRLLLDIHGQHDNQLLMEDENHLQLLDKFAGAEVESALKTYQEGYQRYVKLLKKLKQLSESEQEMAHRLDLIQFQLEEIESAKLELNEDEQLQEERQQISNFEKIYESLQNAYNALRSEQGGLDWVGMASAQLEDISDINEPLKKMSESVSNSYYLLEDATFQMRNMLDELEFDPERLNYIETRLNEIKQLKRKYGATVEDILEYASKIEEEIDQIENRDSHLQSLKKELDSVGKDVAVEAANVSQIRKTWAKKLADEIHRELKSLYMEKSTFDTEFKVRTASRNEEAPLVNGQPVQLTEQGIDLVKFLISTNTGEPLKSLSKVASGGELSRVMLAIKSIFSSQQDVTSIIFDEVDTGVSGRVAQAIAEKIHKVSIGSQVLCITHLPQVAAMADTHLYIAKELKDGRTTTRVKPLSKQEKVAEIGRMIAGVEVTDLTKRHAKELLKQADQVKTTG

[2] = biological target: T2, RecN (Bacillus subtilis, UniProt P17894 1-576); assay: EMSA
T2 sequence: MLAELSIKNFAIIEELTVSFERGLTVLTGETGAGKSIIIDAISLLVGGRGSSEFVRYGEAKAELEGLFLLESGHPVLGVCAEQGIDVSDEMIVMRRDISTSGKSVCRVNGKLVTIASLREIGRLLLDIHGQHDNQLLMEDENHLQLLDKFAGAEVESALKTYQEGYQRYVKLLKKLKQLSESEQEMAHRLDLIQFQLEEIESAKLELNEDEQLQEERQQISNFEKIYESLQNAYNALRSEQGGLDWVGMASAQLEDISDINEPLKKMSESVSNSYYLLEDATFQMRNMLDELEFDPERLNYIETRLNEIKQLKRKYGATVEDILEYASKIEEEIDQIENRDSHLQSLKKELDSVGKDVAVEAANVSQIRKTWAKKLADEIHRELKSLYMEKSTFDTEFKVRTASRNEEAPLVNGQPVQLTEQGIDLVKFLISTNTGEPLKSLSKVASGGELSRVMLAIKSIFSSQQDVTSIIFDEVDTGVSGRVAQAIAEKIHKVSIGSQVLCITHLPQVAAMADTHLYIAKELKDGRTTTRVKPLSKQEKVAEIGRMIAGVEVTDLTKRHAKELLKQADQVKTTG

[3] = biological target: T3, RecN, high-S gradient fraction 1 (presumed octamer) (Bacillus subtilis, UniProt P17894 1-576); assay: EMSA
T3 sequence: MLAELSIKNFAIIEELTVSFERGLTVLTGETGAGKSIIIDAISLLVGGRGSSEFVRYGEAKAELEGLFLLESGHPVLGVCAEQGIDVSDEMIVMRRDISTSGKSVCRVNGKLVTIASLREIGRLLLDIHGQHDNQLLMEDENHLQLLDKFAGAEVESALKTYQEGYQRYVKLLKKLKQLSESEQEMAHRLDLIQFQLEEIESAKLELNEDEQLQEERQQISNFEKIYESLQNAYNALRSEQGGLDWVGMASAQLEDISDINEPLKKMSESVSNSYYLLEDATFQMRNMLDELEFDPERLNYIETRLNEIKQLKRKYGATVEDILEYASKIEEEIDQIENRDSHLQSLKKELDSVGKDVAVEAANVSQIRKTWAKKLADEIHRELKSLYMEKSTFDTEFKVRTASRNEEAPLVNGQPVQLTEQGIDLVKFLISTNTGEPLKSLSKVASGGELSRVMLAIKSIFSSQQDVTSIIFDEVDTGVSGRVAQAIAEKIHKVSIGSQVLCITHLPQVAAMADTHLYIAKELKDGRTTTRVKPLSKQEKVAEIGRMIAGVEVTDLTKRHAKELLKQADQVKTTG

[4] = biological target: T2, RecN; assay: EMSA; remark: listed apart in the source
[5] = biological target: T2, RecN; assay: EMSA; remark: listed apart in the source

Nc1ncnc2c1ncn2[C@H]1C[C@H](O)[C@@H](COP(=O)(O)OP(=O)(O)OP(=O)(O)O)O1 [dATP]
EMSA, nucleotide-dependent RecN-ssDNA complex (CII/CIII) assembly ([1]; labelled ssDNA60 1 nM, RecN 10 nM, 2 mM MgCl2, pH 7.5, 2% PEG-6000, 37 °C, dATP 1 mM): also when ADP or dATP was present CIII and CII were formed

Nc1ncnc2c1ncn2[C@@H]1O[C@H](COP(=O)(O)OP(=O)(O)OP(O)(O)=S)[C@@H](O)[C@H]1O [ATPγS]
EMSA, nucleotide-dependent RecN-ssDNA complex (CII/CIII) assembly ([1]; weakly hydrolysable analogue, ssDNA60, 2 mM MgCl2, pH 7.5, 37 °C): weakly hydrolysable analogue (ATPγS) present, CII and CIII formation was observed

B1: ssDNA60 (ssDNA)
DNA: CTCCTATTATGCTCAACTTAAATGACCTACTCTATAAAGCTATAGTACTGCTATCTAATC
binding result [2]: binds
binding result [3]: binds

B2: dsDNA60 (dsDNA)
DNA 1: CTCCTATTATGCTCAACTTAAATGACCTACTCTATAAAGCTATAGTACTGCTATCTAATC
DNA 2: GATTAGATAGCAGTACTATAGCTTTATAGAGTAGGTCATTTAAGTTGAGCATAATAGGAG
binding result [4]: no binding

CTCCTATTATGCTCA (ssDNA) [ssDNA15]
binding result [5]: no binding
